# Measured values reported in the supplement of paper PMC9112550, “Optimization of the antimicrobial peptide Bac7 by deep mutational scanning” (BMC Biology, 2022).
# Tested on: Escherichia coli TOP10
# Test: shrunken log2 fold change of peptide-encoding DNA abundance (4.5 h post-induction vs induction); higher = less antimicrobial activity (less host growth inhibition)
# Conditions: time post-induction: 4.5 h; library: site-saturation at positions 5, 18, 19, 20
# 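Further: peptides expressed intracellularly from a pBAD plasmid library in pooled LB shake-flask culture, induced with 0.3% L-arabinose, DNA abundance read by NGS, three biological replicates, DESeq2 with apeglm shrinkage.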
row,Sequence,shrunken log2 fold change
1,RRIRIRPPRLPRPRPRPFLPPRP,-0.4
2,RRIRKRPPRLPRPRPRPSAHPRP,0.164
3,RRIRTRPPRLPRPRPRPLEAPRP,0.115
4,RRIRERPPRLPRPRPRPDPRPRP,0.768
5,RRIRSRPPRLPRPRPRPIKWPRP,-0.197
6,RRIRIRPPRLPRPRPRPCWFPRP,-0.165
7,RRIRDRPPRLPRPRPRPFLRPRP,0.00895
8,RRIRKRPPRLPRPRPRPQPIPRP,0.424
9,RRIRYRPPRLPRPRPRPYNQPRP,-0.922
10,RRIRTRPPRLPRPRPRPKNQPRP,-0.274
11,RRIRRRPPRLPRPRPRPSKGPRP,-0.518
12,RRIRYRPPRLPRPRPRPDMFPRP,-0.0113
13,RRIRIRPPRLPRPRPRPFCDPRP,-0.0745
14,RRIRSRPPRLPRPRPRPFCGPRP,-0.201
15,RRIRIRPPRLPRPRPRPIKYPRP,-2.06
16,RRIRLRPPRLPRPRPRPHLWPRP,0.0492
17,RRIRVRPPRLPRPRPRPHDIPRP,0.0663
18,RRIRKRPPRLPRPRPRPGWYPRP,-0.0717
19,RRIRIRPPRLPRPRPRPIRAPRP,-0.634
20,RRIRIRPPRLPRPRPRPMKNPRP,-0.359
21,RRIRVRPPRLPRPRPRPKAWPRP,0.0531
22,RRIRDRPPRLPRPRPRPFNDPRP,-0.158
23,RRIRFRPPRLPRPRPRPRVIPRP,-0.0914
24,RRIRYRPPRLPRPRPRPSMKPRP,-0.806
25,RRIRDRPPRLPRPRPRPPMFPRP,0.216

row,Sequence,shrunken log2 fold change
1,RRIRFRPPRLPRPRPRPYFSPRP,-0.245
2,RRIRWRPPRLPRPRPRPTTPPRP,0.642
3,RRIRIRPPRLPRPRPRPWAWPRP,-0.00783
4,RRIRHRPPRLPRPRPRPLYEPRP,-0.211
5,RRIRIRPPRLPRPRPRPPVCPRP,0.108
6,RRIRARPPRLPRPRPRPVCDPRP,0.992
7,RRIRHRPPRLPRPRPRPQILPRP,-0.0081
8,RRIRERPPRLPRPRPRPKQGPRP,-0.0514
9,RRIRFRPPRLPRPRPRPWCPPRP,-0.155
10,RRIRGRPPRLPRPRPRPRINPRP,-0.122
11,RRIRSRPPRLPRPRPRPRPHPRP,0.151
12,RRIRPRPPRLPRPRPRPWTSPRP,-0.0224
13,RRIRIRPPRLPRPRPRPRNMPRP,-0.243
14,RRIRYRPPRLPRPRPRPQVTPRP,-0.00804
15,RRIRKRPPRLPRPRPRPFSTPRP,-0.187
16,RRIRARPPRLPRPRPRPTCPPRP,0.444
17,RRIRFRPPRLPRPRPRPSGWPRP,0.187
18,RRIRNRPPRLPRPRPRPHNHPRP,-0.739
19,RRIRKRPPRLPRPRPRPLLMPRP,-0.109
20,RRIRIRPPRLPRPRPRPNWSPRP,0.0776
21,RRIRQRPPRLPRPRPRPMHAPRP,0.254
22,RRIRMRPPRLPRPRPRPKFLPRP,0.192
23,RRIRMRPPRLPRPRPRPMIPPRP,-0.448
24,RRIRQRPPRLPRPRPRPFHCPRP,-0.192
25,RRIRSRPPRLPRPRPRPCQKPRP,0.185

row,Sequence,shrunken log2 fold change
1,RRIRERPPRLPRPRPRPPPCPRP,0.0452
2,RRIRCRPPRLPRPRPRPHCEPRP,-0.226
3,RRIRVRPPRLPRPRPRPTNTPRP,-0.175
4,RRIRVRPPRLPRPRPRPWEAPRP,0.268
5,RRIRNRPPRLPRPRPRPNHFPRP,-0.0479
6,RRIRYRPPRLPRPRPRPPQKPRP,-0.123
7,RRIRMRPPRLPRPRPRPDYKPRP,0.248
8,RRIRQRPPRLPRPRPRPWATPRP,0.136
9,RRIRIRPPRLPRPRPRPFHQPRP,-0.961
10,RRIRSRPPRLPRPRPRPHLLPRP,-0.097
11,RRIRLRPPRLPRPRPRPHDAPRP,-0.0938
12,RRIRTRPPRLPRPRPRPHNYPRP,-0.329
13,RRIRHRPPRLPRPRPRPIQWPRP,-0.01
14,RRIRYRPPRLPRPRPRPLMTPRP,-0.181
15,RRIRLRPPRLPRPRPRPPKMPRP,0.159
16,RRIRARPPRLPRPRPRPDGCPRP,0.239
17,RRIRQRPPRLPRPRPRPCVPPRP,-0.0509
18,RRIRMRPPRLPRPRPRPIVCPRP,-0.0438
19,RRIRSRPPRLPRPRPRPRGQPRP,0.197
20,RRIRRRPPRLPRPRPRPMDQPRP,0.132
21,RRIRVRPPRLPRPRPRPPCCPRP,0.117
22,RRIRPRPPRLPRPRPRPVFLPRP,-0.128
23,RRIRKRPPRLPRPRPRPMFNPRP,-0.0523
24,RRIRYRPPRLPRPRPRPHKCPRP,-0.259
25,RRIRYRPPRLPRPRPRPDPWPRP,-0.26

row,Sequence,shrunken log2 fold change
1,RRIRRRPPRLPRPRPRPYTVPRP,-0.325
2,RRIRYRPPRLPRPRPRPNVWPRP,-0.00356
3,RRIRPRPPRLPRPRPRPDNKPRP,-0.778
4,RRIRWRPPRLPRPRPRPFNFPRP,-0.272
5,RRIRHRPPRLPRPRPRPFAPPRP,-0.0777
6,RRIRARPPRLPRPRPRPFYPPRP,-0.104
7,RRIRNRPPRLPRPRPRPLHIPRP,-0.363
8,RRIRVRPPRLPRPRPRPYNAPRP,-0.521
9,RRIRYRPPRLPRPRPRPCRAPRP,-0.459
10,RRIRVRPPRLPRPRPRPNFWPRP,0.137
11,RRIRGRPPRLPRPRPRPEYKPRP,0.375
12,RRIRHRPPRLPRPRPRPLCWPRP,-0.0222
13,RRIRFRPPRLPRPRPRPATMPRP,-0.0804
14,RRIRRRPPRLPRPRPRPDGFPRP,0.14
15,RRIRMRPPRLPRPRPRPTWIPRP,0.0438
16,RRIRLRPPRLPRPRPRPQFYPRP,-0.727
17,RRIRVRPPRLPRPRPRPDSMPRP,-0.103
18,RRIRTRPPRLPRPRPRPPLGPRP,0.328
19,RRIRPRPPRLPRPRPRPDELPRP,-0.0607
20,RRIRMRPPRLPRPRPRPQHPPRP,-0.0395
21,RRIRQRPPRLPRPRPRPAAPPRP,0.243
22,RRIRERPPRLPRPRPRPIDSPRP,-0.0823
23,RRIRKRPPRLPRPRPRPNRGPRP,0.0385
24,RRIRWRPPRLPRPRPRPVCSPRP,0.0102
25,RRIRDRPPRLPRPRPRPSTYPRP,-0.273

row,Sequence,shrunken log2 fold change
1,RRIRPRPPRLPRPRPRPCVHPRP,-0.434
2,RRIRARPPRLPRPRPRPNQKPRP,0.0427
3,RRIRGRPPRLPRPRPRPEGNPRP,0.0816
4,RRIRCRPPRLPRPRPRPWIAPRP,-0.256
5,RRIRHRPPRLPRPRPRPYSEPRP,-0.29
6,RRIRDRPPRLPRPRPRPVHKPRP,-0.233
7,RRIRRRPPRLPRPRPRPQLKPRP,0.0988
8,RRIRYRPPRLPRPRPRPISAPRP,-0.373
9,RRIRSRPPRLPRPRPRPRHMPRP,-0.0166
10,RRIRERPPRLPRPRPRPVYDPRP,-0.0514
11,RRIRHRPPRLPRPRPRPMGEPRP,-0.0135
12,RRIRYRPPRLPRPRPRPSDMPRP,-0.00973
13,RRIRHRPPRLPRPRPRPLFLPRP,-0.612
14,RRIRERPPRLPRPRPRPSKCPRP,-0.488
15,RRIRKRPPRLPRPRPRPEKTPRP,-0.000942
16,RRIRMRPPRLPRPRPRPRWDPRP,0.793
17,RRIRRRPPRLPRPRPRPKGLPRP,0.238
18,RRIRLRPPRLPRPRPRPVYPPRP,-0.132
19,RRIRSRPPRLPRPRPRPLTQPRP,0.243
20,RRIRFRPPRLPRPRPRPRAGPRP,0.614
21,RRIRWRPPRLPRPRPRPKMVPRP,0.295
22,RRIRQRPPRLPRPRPRPMIKPRP,-0.318
23,RRIRHRPPRLPRPRPRPEIEPRP,-0.0966
24,RRIRPRPPRLPRPRPRPRKPPRP,-0.0217
25,RRIRDRPPRLPRPRPRPLMSPRP,0.101

row,Sequence,shrunken log2 fold change
1,RRIRDRPPRLPRPRPRPPIVPRP,-0.161
2,RRIRNRPPRLPRPRPRPHWYPRP,-0.0582
3,RRIRVRPPRLPRPRPRPNFNPRP,-0.143
4,RRIRWRPPRLPRPRPRPMHHPRP,-0.261
5,RRIRARPPRLPRPRPRPSSKPRP,-0.134
6,RRIRMRPPRLPRPRPRPFTMPRP,-0.55
7,RRIRRRPPRLPRPRPRPRRLPRP,0.54
8,RRIRWRPPRLPRPRPRPTNKPRP,-0.195
9,RRIRTRPPRLPRPRPRPTLIPRP,-0.108
10,RRIRFRPPRLPRPRPRPEHKPRP,-0.0193
11,RRIRIRPPRLPRPRPRPGRGPRP,0.268
12,RRIRLRPPRLPRPRPRPANIPRP,-0.501
13,RRIRIRPPRLPRPRPRPVGSPRP,0.36
14,RRIRCRPPRLPRPRPRPGKCPRP,-0.173
15,RRIRTRPPRLPRPRPRPVCQPRP,2.97
16,RRIRGRPPRLPRPRPRPVCMPRP,0.406
17,RRIRHRPPRLPRPRPRPATIPRP,-0.281
18,RRIRSRPPRLPRPRPRPTNAPRP,-0.0746
19,RRIRDRPPRLPRPRPRPLEPPRP,0.239
20,RRIRYRPPRLPRPRPRPIANPRP,-0.0103
21,RRIRCRPPRLPRPRPRPTDCPRP,0.0318
22,RRIRLRPPRLPRPRPRPFYCPRP,-0.472
23,RRIRLRPPRLPRPRPRPVCGPRP,0.227
24,RRIRTRPPRLPRPRPRPYNMPRP,-0.568
25,RRIRWRPPRLPRPRPRPNLMPRP,-0.227
